Data on one substance can be found in paper doi:10.1101/2025.08.01.667454.

What is called Kd is the equilibrium constant for the complex coming apart. Read a high Kd as lower affinity.

Some results are limits rather than exact numbers.

In the experiment the target is PU.1[60–100]^TMR (human) (UniProt P17947). The experiment can be described thus: fluorescence polarisation. On the technique in general: Polarisation of emitted light reports the rotation of a fluorescent probe.

For BAF60A^SWIB (domain or fragment), the Kd is over 50 µM.
